This test addresses T1, GST-PIAS3 (UniProt Q9Y6X2 1-628).
T1 construct: PIAS3; also called bacterially expressed PIAS3; source: E. coli BL21, purified (Glutathione Agarose Resin)
T1 sequence (looked up): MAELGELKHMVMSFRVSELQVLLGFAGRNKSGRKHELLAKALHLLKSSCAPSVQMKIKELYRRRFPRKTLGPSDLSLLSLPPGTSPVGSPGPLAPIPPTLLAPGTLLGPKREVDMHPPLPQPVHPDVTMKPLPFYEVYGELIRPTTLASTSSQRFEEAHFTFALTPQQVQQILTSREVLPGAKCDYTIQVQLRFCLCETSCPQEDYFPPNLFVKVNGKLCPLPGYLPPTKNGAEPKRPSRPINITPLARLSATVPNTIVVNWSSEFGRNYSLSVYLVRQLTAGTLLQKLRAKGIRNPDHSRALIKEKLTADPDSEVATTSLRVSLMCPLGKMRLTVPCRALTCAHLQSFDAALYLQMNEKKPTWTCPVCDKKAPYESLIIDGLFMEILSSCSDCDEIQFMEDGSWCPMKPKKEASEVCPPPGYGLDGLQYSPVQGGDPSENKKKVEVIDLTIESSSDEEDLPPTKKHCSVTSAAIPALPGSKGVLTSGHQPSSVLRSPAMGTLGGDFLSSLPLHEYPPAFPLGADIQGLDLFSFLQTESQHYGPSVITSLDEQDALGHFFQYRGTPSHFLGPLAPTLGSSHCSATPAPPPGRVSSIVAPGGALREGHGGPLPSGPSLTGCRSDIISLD
As to the kind of experiment: pull-down; purified GST or GST-PIAS3 incubated with purified His-METTL10 in 25 mM Tris-HCl pH 8.0, 150 mM NaCl, 4 °C overnight; Glutathione Agarose Resin; eluted with 10 mM reduced glutathione. Conditions: both partners purified.

B1: His-METTL10 (enzyme)
chain: not shown
notes: METTL10 (EEF1AKMT2); also called bacterially expressed METTL10; source: E. coli BL21, purified (Ni-NTA resin)
Consider B1, for which the binding result is “binds”.
